Assay results from publication PMC3322178 (Biochemistry, 2009).
Substitutions are numbered along the chain they refer to. Names and notes keep the numbering of the source. Like-named read-outs stand apart in the source and are kept apart here.

B1: GST-ASF(RRM2)-Q135A (domain or fragment, human, UniProt Q07955 105-196, looked up)
chain: GGAPRGRYGPPSRRSENRVVVSGLPPSGSWADLKDHMREAGDVCYADVYRDGTGVVEFVRKEDMTYAVRKLDNTKFRSHEGETAYIRVKVDG
B2: GST-ASF(RS), ASF/SF2 RS domain residues 183-248 (domain or fragment, human, UniProt Q07955 183-248, looked up)
chain: HEGETAYIRVKVDGPRSPSYGRSRSRSRSRSRSRSRSNSRSRSYSPRRSRGSPRYSPRHSRSRSRT
B3: GST-ASFΔβ4ΔRS (residues 1-179) (domain or fragment, human, UniProt Q07955 1-179, looked up)
chain: MSGGGVIRGPAGNNDCRIYVGNLPPDIRTKDIEDVFYKYGAIRDIDLKNRRGGPPFAFVEFEDPRDAEDAVYGRDGYDYDGYRLRVEFPRSGRGTGRGGGGGGGGGAPRGRYGPPSRRSENRVVVSGLPPSGSWQDLKDHMREAGDVCYADVYRDGTGVVEFVRKEDMTYAVRKLDNTK
B4: GST-ASF(RRM2)-R154A (domain or fragment, human, UniProt Q07955 105-196, looked up)
chain: B1 chain with A31Q, R50A
B5: GST-ASF(RRM2)-W134A (domain or fragment, human, UniProt Q07955 105-196, looked up)
chain: B1 chain with W30A, A31Q

How the values were obtained:
ASF/SF2 (Homo sapiens) = ASF/SF2 (Homo sapiens) (UniProt Q07955); details: cited from earlier work
[1] = target: T1, His-SRPK1(FL), full length SR protein kinase 1 (UniProt Q96SB4 1-655); assay: pull-down
[2] = target: T1, His-SRPK1(FL), full length SR protein …; assay: pull-down; remark: listed apart in the source

Molecule | binding result [1] | binding result [2] | further results
SRPK1 (from UniProt Q96SB4) | – | – | Kd (ASF/SF2 (Homo sapiens)): 50 nM
B1 | binds | – | –
B2 | – | binds | –
B3 | binds | – | –
B4 | – | binds | –
B5 | binds | – | –
